These results are taken from IntAct's records for PubMed 24003221.

Sequences and labels used below:
B1: Tyrosine-protein phosphatase non-receptor type 1 (Homo sapiens), P18031 (parent)
chain: MEMEKEFEQIDKSGSWAAIYQDIRHEASDFPCRVAKLPKNKNRNRYRDVSPFDHSRIKLHQEDNDYINASLIKMEEAQRSYILTQGPLPNTCGHFWEMVWEQKSRGVVMLNRVMEKGSLKCAQYWPQKEEKEMIFEDTNLKLTLISEDIKSYYTVRQLELENLTTQETREILHFHYTTWPDFGVPESPASFLNFLFKVRESGSLSPEHGPVVVHCSAGIGRSGTFCLADTCLLLMDKRKDPSSVDIKKVLLEMRKFRMGLIQTADQLRFSYLAVIEGAKFIMGDSSVQDQWKELSHEDLEPPPEHIPPPPRPPKRILEPHNGKCREFFPNHQWVKEETQEDKDCPIKEEKGSPLNAAPYGIESMSQDTEVRSRVVGGSLRGAQAASPAKGEPSLPEKDEDHALSYWKPFLVNMCVATVLTAGAYLCYRFLFNSNT

Variants of B1 are the subject of this assay. The conditions noted are these: with k2c8_human KRT8, P05787.
Sequence of k2c8_human KRT8, P05787 (P05787 whole entry): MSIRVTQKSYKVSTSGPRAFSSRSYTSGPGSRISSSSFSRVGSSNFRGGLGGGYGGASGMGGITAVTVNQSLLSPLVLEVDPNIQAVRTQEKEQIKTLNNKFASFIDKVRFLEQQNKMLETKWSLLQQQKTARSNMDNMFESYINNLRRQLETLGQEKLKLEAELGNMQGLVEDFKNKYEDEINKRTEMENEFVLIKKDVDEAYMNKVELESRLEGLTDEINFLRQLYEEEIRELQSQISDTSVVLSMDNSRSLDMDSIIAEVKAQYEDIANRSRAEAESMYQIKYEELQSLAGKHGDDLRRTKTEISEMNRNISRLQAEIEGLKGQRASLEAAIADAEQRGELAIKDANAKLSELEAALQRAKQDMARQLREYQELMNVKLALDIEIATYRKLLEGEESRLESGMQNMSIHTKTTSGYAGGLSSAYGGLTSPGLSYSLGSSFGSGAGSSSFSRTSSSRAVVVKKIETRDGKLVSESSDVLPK
As to D181A, the “effect of a mutation on the interaction” value is “increasing interaction strength”.
